# Read-outs that look alike come from different tables or passages of the source.
# T1: endosome associated trafficking regulator 1, transcript variant 2 (human, UniProt Q96C92 59-435)
# T1 construct: on protein array; also called SDCCAG3
# T1 chain: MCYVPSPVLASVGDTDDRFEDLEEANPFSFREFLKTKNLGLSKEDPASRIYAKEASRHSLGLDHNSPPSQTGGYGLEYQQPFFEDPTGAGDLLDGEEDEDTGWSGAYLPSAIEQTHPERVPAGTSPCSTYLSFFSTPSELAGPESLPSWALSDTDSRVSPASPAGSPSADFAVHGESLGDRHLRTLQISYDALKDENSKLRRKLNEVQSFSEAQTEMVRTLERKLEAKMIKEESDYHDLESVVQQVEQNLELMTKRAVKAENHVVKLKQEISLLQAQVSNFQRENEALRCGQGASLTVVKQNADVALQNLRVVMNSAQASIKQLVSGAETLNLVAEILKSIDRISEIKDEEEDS
# T2: endosome associated trafficking regulator 1, transcript variant 2 (human, UniProt Q96C92 59-435)
# T2 construct: HuProt array protein, full-length recombinant from yeast; also called SDCCAG3
# T2 chain: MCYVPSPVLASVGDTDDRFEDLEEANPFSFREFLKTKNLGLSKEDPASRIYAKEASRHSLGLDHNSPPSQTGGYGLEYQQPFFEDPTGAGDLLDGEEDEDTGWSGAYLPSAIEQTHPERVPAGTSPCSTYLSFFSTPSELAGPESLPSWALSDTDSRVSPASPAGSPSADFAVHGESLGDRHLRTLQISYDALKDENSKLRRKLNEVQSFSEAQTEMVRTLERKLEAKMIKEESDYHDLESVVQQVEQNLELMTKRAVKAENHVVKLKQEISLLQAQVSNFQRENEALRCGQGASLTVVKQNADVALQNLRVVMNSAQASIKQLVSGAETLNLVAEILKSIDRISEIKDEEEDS
# T3: Jupiter microtubule associated homolog 2 (human, UniProt Q9H910 1-190)
# T3 construct: on protein array; also called HN1L
# T3 sequence: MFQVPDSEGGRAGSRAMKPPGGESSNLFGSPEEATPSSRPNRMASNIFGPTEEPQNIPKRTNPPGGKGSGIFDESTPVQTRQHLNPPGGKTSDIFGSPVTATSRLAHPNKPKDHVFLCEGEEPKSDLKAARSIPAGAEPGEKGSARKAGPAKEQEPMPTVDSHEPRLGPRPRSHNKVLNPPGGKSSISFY
# What was measured:
# [1] = target: T4, kelch like ECH associated protein 1, transcript variant 1 (human, UniProt Q14145 1-624)
# T4 construct: HuProt array protein, full-length recombinant from yeast; also called KEAP1
# T4 sequence (Q14145 whole entry, change not shown): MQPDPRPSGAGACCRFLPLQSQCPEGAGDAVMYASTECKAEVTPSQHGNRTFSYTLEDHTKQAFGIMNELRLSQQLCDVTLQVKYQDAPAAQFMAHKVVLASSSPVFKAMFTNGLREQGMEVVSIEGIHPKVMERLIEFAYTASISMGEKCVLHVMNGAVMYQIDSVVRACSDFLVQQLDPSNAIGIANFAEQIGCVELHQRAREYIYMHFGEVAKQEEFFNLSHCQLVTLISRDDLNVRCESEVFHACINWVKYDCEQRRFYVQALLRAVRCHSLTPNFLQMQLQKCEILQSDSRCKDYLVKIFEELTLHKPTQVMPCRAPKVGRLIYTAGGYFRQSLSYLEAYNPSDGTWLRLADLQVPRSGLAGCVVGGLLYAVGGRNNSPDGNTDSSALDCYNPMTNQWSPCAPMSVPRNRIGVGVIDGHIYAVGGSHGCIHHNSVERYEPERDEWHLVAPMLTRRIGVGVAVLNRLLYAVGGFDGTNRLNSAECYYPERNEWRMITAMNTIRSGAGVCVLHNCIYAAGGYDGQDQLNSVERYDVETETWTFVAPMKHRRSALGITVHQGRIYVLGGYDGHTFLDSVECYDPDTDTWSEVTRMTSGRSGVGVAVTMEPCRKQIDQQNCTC
# [2] = target: T5, kelch like ECH associated protein 1, transcript variant 1 (human, UniProt Q14145 1-624); experiment: protein array
# T5 construct: on protein array; also called KEAP1
# T5 sequence (Q14145 whole entry, change not shown): as above
# DEAD-box helicase 53 [3] = target: T6, DEAD-box helicase 53 (human, UniProt Q86TM3 1-631); experiment: protein array
# T6 construct: on protein array; also called DDX53
# T6 sequence (Q86TM3 other isoform, or with tags, fused parts or gaps limits assumed): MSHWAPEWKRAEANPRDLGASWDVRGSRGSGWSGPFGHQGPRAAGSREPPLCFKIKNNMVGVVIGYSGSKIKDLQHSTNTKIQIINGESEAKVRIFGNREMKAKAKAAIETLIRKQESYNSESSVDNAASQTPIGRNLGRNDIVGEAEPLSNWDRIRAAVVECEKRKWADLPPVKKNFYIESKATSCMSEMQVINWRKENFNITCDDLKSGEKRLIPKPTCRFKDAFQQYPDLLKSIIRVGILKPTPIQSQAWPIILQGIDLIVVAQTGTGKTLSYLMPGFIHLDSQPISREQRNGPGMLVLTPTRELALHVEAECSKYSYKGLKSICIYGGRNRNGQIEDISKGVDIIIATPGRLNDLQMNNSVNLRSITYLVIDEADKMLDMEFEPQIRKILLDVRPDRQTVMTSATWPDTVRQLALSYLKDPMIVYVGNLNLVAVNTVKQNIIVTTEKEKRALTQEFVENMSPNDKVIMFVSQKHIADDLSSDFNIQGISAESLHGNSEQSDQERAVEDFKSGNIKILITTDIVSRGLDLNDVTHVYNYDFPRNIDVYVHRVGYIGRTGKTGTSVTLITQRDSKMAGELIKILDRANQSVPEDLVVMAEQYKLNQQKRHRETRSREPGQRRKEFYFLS
# DEAD-box helicase 53 [4] = target: T7, DEAD-box helicase 53 (human, UniProt Q86TM3 1-631)
# T7 construct: also called DDX53
# T7 sequence (Q86TM3 other isoform, or with tags, fused parts or gaps limits assumed): as above
# [5] = target: T1, endosome associated trafficking …; experiment: protein array
# [6] = target: T2, endosome associated trafficking …
# [7] = target: T3, Jupiter microtubule associated homolog 2; experiment: protein array
# [8] = target: T8, PNMA family member 5, transcript variant 2 (human, UniProt Q96PV4 1-448); experiment: protein array
# T8 construct: on protein array; also called PNMA5
# T8 sequence (Q96PV4 other isoform, or with tags, fused parts or gaps mutant limits assumed): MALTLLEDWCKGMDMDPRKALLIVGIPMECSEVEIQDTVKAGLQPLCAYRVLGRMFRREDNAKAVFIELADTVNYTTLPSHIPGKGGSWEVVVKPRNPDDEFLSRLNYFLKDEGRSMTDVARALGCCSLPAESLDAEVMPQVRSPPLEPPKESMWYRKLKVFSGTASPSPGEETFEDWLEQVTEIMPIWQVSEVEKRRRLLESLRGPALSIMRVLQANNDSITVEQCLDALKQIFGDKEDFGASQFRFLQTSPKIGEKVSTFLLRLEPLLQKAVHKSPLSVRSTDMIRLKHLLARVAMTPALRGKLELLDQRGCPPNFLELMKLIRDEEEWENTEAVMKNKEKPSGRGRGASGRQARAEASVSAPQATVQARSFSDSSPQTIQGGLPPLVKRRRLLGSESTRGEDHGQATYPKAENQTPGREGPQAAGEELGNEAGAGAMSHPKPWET
# [9] = target: T9, PNMA family member 5, transcript variant 2 (human, UniProt Q96PV4 1-448)
# T9 construct: HuProt array protein, full-length recombinant from yeast; also called PNMA5
# T9 sequence (Q96PV4 other isoform, or with tags, fused parts or gaps mutant limits assumed): as above
binder,measurement,setting,value
"TBRE1052 (antibody, V domains shown, detected with anti-human IgG Fc) VH: PVQLIQSGAEVRKPGASVKVSCKVSGYTLSELSLHWVRQAPGKGLEWMGTFDPEDGETVYAQKFQGRVTVTEDTSTDTAYIDLSSLKSEDTAVYYCATDGPLHTSGLDYWGQGTLVTVSS VL: EIVLTQSPATLSLSPGERATLSCRASQSISSNLAWYQQKPGQAPRLLIYDASNRATGIPARFSGSGSGTDFTLTISSLEPEDFAVYYCQQHSNWPELTFGGGTKVEIKR",binding result,[1],binds
"TBRE1052 (antibody, V domains shown, VH/VL only) VH: PVQLIQSGAEVRKPGASVKVSCKVSGYTLSELSLHWVRQAPGKGLEWMGTFDPEDGETVYAQKFQGRVTVTEDTSTDTAYIDLSSLKSEDTAVYYCATDGPLHTSGLDYWGQGTLVTVSS VL: EIVLTQSPATLSLSPGERATLSCRASQSISSNLAWYQQKPGQAPRLLIYDASNRATGIPARFSGSGSGTDFTLTISSLEPEDFAVYYCQQHSNWPELTFGGGTKVEIKR",binding result,[2],binds
"TOVA1001 (antibody, V domains shown, VH/VL tied via antigen in summary, not by name in this stretch) VH: HVQLVQSGSELKKPGASVKLSCKASGYTFTNYAMNWVRQAPGQGLEWMGWINTNTGNPTYAQGFTGRFVFSLDTSVSTAYLQISSLKAEDTALYYCARDRPGDYWGQGTLVTVSS VL: not shown",binding result,DEAD-box helicase 53 [3],binds
"TOVA1001 (antibody, V domains shown) VH: HVQLVQSGSELKKPGASVKLSCKASGYTFTNYAMNWVRQAPGQGLEWMGWINTNTGNPTYAQGFTGRFVFSLDTSVSTAYLQISSLKAEDTALYYCARDRPGDYWGQGTLVTVSS VL: not shown",binding result,DEAD-box helicase 53 [4],binds
"TMEL1025 (antibody, V domains shown, VH/VL tied via antigen in summary, not by name in this stretch) VH: EVQLMESGGGLVQPGGSLRLSCAASGLTFSIYSMNWVRQAPGKGLEWVSYISRGSSVIYHADSVKGRFTISRDDGKNLLYLQMNSLRDDDTAMYYCSSGGSTSMVGRYWGQGSLVTVSS VL: DVVMTQSPLYLPVTLGQPASISCRASQSLVYSDGNTYLNWVHQRPGQSPRRLIYMVSQRGSGVPDRFSGSGSDTDFTLKISRVEAEDVGVYYCMQGTHWSAFGQGTKLEIKR",binding result,[5],binds
"TMEL1025 (antibody, V domains shown, detected with anti-human IgG Fc) VH: EVQLMESGGGLVQPGGSLRLSCAASGLTFSIYSMNWVRQAPGKGLEWVSYISRGSSVIYHADSVKGRFTISRDDGKNLLYLQMNSLRDDDTAMYYCSSGGSTSMVGRYWGQGSLVTVSS VL: DVVMTQSPLYLPVTLGQPASISCRASQSLVYSDGNTYLNWVHQRPGQSPRRLIYMVSQRGSGVPDRFSGSGSDTDFTLKISRVEAEDVGVYYCMQGTHWSAFGQGTKLEIKR",binding result,[6],binds
"TSAR1004 (antibody, V domains shown, VH/VL tied via antigen in summary, not by name in this stretch) VH: QVQLQESGPGLVKPSETLSLTCSVSGDSFSDYYWSWTRQSPGKGLEWLGYMFYGGSTNYNPSLKSRLTMSVDTSKKHVYLKLSSVTAADTAVYYCAASGYGDHVAYWGQGTLVTVSS VL: DIVMTQSPDSLAVSLGERATLNCKSSQSVLSSYNNKDYLAWFQQKPGQPPQLLFYWASTRKTGVPDRFSGSGSGTDFTLTISSLQTEDVAVYYCQQYYSTPYTFGQGTKLEIK",binding result,DEAD-box helicase 53 [3],binds
"TSAR1004 (antibody, V domains shown) VH: QVQLQESGPGLVKPSETLSLTCSVSGDSFSDYYWSWTRQSPGKGLEWLGYMFYGGSTNYNPSLKSRLTMSVDTSKKHVYLKLSSVTAADTAVYYCAASGYGDHVAYWGQGTLVTVSS VL: DIVMTQSPDSLAVSLGERATLNCKSSQSVLSSYNNKDYLAWFQQKPGQPPQLLFYWASTRKTGVPDRFSGSGSGTDFTLTISSLQTEDVAVYYCQQYYSTPYTFGQGTKLEIK",binding result,DEAD-box helicase 53 [4],binds
"TOVA1008 (antibody, V domains shown, VH/VL tied via antigen in summary, not by name in this stretch) VH: ELQLVESGGGLVQPGGSLRLSCAASGFTFSSYWMSWVRQAPGKGLEWVANINQDGGEKYYVDSVKGRFTISRDNAKNSLYLQMNSLRAEDTAVYYCAHYYYDSSGYYQNAEYFQYWGQGTLVTVSS VL: DIQMTQSPPSLSASVGDRVTITCQASQDISNYLNWYQQKPGKTPKLLIYAASTLETGVPSRFSGSGSGTDFTFTINSLQPEDIATYYCQQYDSLPLTFGGGTKVEIKR",binding result,[7],binds
"TTES1011 (antibody, V domains shown, VH/VL tied via antigen in summary, not by name in this stretch) VH: PVTLRESGPALVKPTQTLTLTCTFSGFSLSTSGMCVSWIRQPPGKALEWLARIDWDDDKYYSTSLKTRLTISKDTSKNQVVLTMTNMDPVDTATYYCARMQIVATTQTYYYYYGMDVWGQGTTVTVSS VL: PAVLTQPPSVSGAPGQRVTISCTGSSSNIGAGYDVHWYQQLPGTAPKLLIYGNSNRPSGVPDRFSGSKSGTSASLAITGLQAEDEADYYCQSYDSSLSGSGVFGGGTKLTVLG",binding result,[7],binds
"TCOL1007 (antibody, V domains shown, detected with anti-human IgG Fc) VH: PVQLVESGGGVVQPGRSLRLSCAASGFTFSNYGMHWVRQAPGKGLEWVAVISDDGNDKDNADSVKGRFTISRDNSKNTLYLRMNSLRREDTAVYYCARDGFDYWGQGTLVTVSS VL: DIVMTQTPLSMPVTPGEPASISCRSSQSLLDSDDGKTYLDWYLQKPGQSPQLLIYTVSYRASGVPDRFSGSGSGTDFTLKISRVEAEDVGVYYCMQRIEFPFTFGPGTKVDIKR",binding result,[1],binds
"TBRE1011 (antibody, V domains shown, VH/VL only) VH: PVLLQESGPGLVKPSETLSLTCTVSGDSMSFYYWTWIRQPPGKGLEWIGYIYYSGNRNYNPSLNSRVTISVDTSKNEVSLKLTSVTAADTAAYYCARGRGEMDVWGQGTTVTVSS VL: QSVLTQPPSASGTPGQGVTISCSGTSANIGKNYVSWYQHLPGTAPRLLIYRIDQRPSGVPDRFSGSKSGTSASLAISGLRPEDEADYYCAAWDDSLSGPVFGGGTKLTVLG",binding result,[8],binds
"TBRE1011 (antibody, V domains shown, detected with anti-human IgG Fc) VH: PVLLQESGPGLVKPSETLSLTCTVSGDSMSFYYWTWIRQPPGKGLEWIGYIYYSGNRNYNPSLNSRVTISVDTSKNEVSLKLTSVTAADTAAYYCARGRGEMDVWGQGTTVTVSS VL: QSVLTQPPSASGTPGQGVTISCSGTSANIGKNYVSWYQHLPGTAPRLLIYRIDQRPSGVPDRFSGSKSGTSASLAISGLRPEDEADYYCAAWDDSLSGPVFGGGTKLTVLG",binding result,[9],binds
"THNS1009 (antibody, V domains shown, detected with anti-human IgG Fc) VH: QVQLQESGPGLVKPSETLSLTCTVSGGSISIYYWSWIRQPPGKGLEWIGYIYYSGSTNYNPSLKSRVTISVDTSKNQFSLKLRSVTAADTAVYYCARDTYGDPRGDYFDYWGQGTLVTVSS VL: DIQMTQSPSTLSASVGDRVTITCRASQRISNWLAWYQQTPGKAPKLLIYKASSLESGVPSRFSGSGSGTEFTLTISSLQPDDFATYYCQQYSSSSPRTFGQGTKVEIKR",binding result,[9],binds
"THNS1009 (antibody, V domains shown, VH/VL only) VH: QVQLQESGPGLVKPSETLSLTCTVSGGSISIYYWSWIRQPPGKGLEWIGYIYYSGSTNYNPSLKSRVTISVDTSKNQFSLKLRSVTAADTAVYYCARDTYGDPRGDYFDYWGQGTLVTVSS VL: DIQMTQSPSTLSASVGDRVTITCRASQRISNWLAWYQQTPGKAPKLLIYKASSLESGVPSRFSGSGSGTEFTLTISSLQPDDFATYYCQQYSSSSPRTFGQGTKVEIKR",binding result,[8],binds
"THNS1008 (antibody, V domains shown, detected with anti-human IgG Fc; also called THINS1008) VH: QVQLQESGPGLVKPSQTLSLTCAVSGGSISSGGYPWSWIRQPPGKGLEWIGYISYSGSTDYNPSLKSRVTISLDTSSNQFSLNLSSLTAADTAVYYCARGAAFYYGMDVWGQGTTVTVSS VL: DIQMTQSPSSLSASVGDRVTITCRASQSISTYLNWYQQKPGKAPKLLIYVASSLQSGVPSRFSGSGSGTDFTLTISGLQPEDFATYYCQQSYSTPYTFGQGTKLEIKR",binding result,[1],binds
"TMES1001 (antibody, V domains shown, VH/VL tied via antigen in summary, not by name in this stretch) VH: QVQLVQSGAEVKKPGASVKVSCKASGYTFTSYYMYWVRQAPGQGLEWMGIINPGGGSTSYAQKFQGRVTMTRDTSTSTVYMELSSLRSEDTAVYYCARVFRYGMDVWGQGTTVTVSS VL: EIVMTQSPATLSVSPGERATLSCRASQSVSSNLAWYQQKPGQAPRLLIYGASTRATGLPARFSGSGSGTEFTLTISSLQSEDFAVYYCQSRGTFGGGTKVEIK",binding result,[5],binds
"TMES1001 (antibody, V domains shown, detected with anti-human IgG Fc) VH: QVQLVQSGAEVKKPGASVKVSCKASGYTFTSYYMYWVRQAPGQGLEWMGIINPGGGSTSYAQKFQGRVTMTRDTSTSTVYMELSSLRSEDTAVYYCARVFRYGMDVWGQGTTVTVSS VL: EIVMTQSPATLSVSPGERATLSCRASQSVSSNLAWYQQKPGQAPRLLIYGASTRATGLPARFSGSGSGTEFTLTISSLQSEDFAVYYCQSRGTFGGGTKVEIK",binding result,[6],binds

# Source: patent US20220204643A1 (published 2022)
